The values that follow come from publication PMC9076019, “HSP90 N‐terminal inhibitors target oncoprotein MORC2 for autophagic degradation and suppress MORC2‐driven breast cancer progression” (Clinical and Translational Medicine, 2022).

Data set [1] deals with the molecule itself. Nature of the data set: cross-linking; nuclear fraction of HEK293T cells transfected with Flag-MORC2 (48 h); chemical cross-linking with 0.05% glutaraldehyde on ice for 5 min; immunoblotting. Background: In western blotting, separated proteins are transferred to a membrane and probed.
Data set [2] concerns the molecule itself. The data set is described as follows: cross-linking; endogenous MORC2; total lysates (NP40 buffer) of MCF-7 and T47D cells treated with DMSO, 1 μM 17-AAG, AUY922, STA-9090 or 10 μM NB for 12 h; 0.05% glutaraldehyde on ice for 5 min; immunoblotting.

B1: Full-length Flag-MORC2 (natural protein, human, UniProt Q9Y6X9-1 1-1032, looked up)
chain: MAFTNYSSLNRAQLTFEYLHTNSTTHEFLFGALAELVDNARDADATRIDIYAERREDLRGGFMLCFLDDGAGMDPSDAASVIQFGKSAKRTPESTQIGQYGNGLKSGSMRIGKDFILFTKKEDTMTCLFLSRTFHEEEGIDEVIVPLPTWNARTREPVTDNVEKFAIETELIYKYSPFRTEEEVMTQFMKIPGDSGTLVIIFNLKLMDNGEPELDIISNPRDIQMAETSPEGTKPERRSFRAYAAVLYIDPRMRIFIHGHKVQTKRLSCCLYKPRMYKYTSSRFKTRAEQEVKKAEHVARIAEEKAREAESKARTLEVRLGGDLTRDSRVMLRQVQNRAITLRREADVKKRIKEAKQRALKEPKELNFVFGVNIEHRDLDGMFIYNCSRLIKMYEKVGPQLEGGMACGGVVGVVDVPYLVLEPTHNKQDFADAKEYRHLLRAMGEHLAQYWKDIAIAQRGIIKFWDEFGYLSANWNQPPSSELRYKRRRAMEIPTTIQCDLCLKWRTLPFQLSSVEKDYPDTWVCSMNPDPEQDRCEASEQKQKVPLGTFRKDMKTQEEKQKQLTEKIRQQQEKLEALQKTTPIRSQADLKKLPLEVTTRPSTEEPVRRPQRPRSPPLPAVIRNAPSRPPSLPTPRPASQPRKAPVISSTPKLPALAAREEASTSRLLQPPEAPRKPANTLVKTASRPAPLVQQLSPSLLPNSKSPREVPSPKVIKTPVVKKTESPIKLSPATPSRKRSVAVSDEEEVEEEAERRKERCKRGRFVVKEEKKDSNELSDSAGEEDSADLKRAQKDKGLHVEVRVNREWYTGRVTAVEVGKHVVRWKVKFDYVPTDTTPRDRWVEKGSEDVRLMKPPSPEHQSLDTQQEGGEEEVGPVAQQAIAVAEPSTSECLRIEPDTTALSTNHETIDLLVQILRNCLRYFLPPSFPISKKQLSAMNSDELISFPLKEYFKQYEVGLQNLCNSYQSRADSRAKASEESLRTSERKLRETEEKLQKLRTNIVALLQKVQEDIDINTDDELDAYIEDLITKGD
notes: MORC2, human, full length (residues 1-1032); source: HEK293T, transfected, in cytosolic and nuclear fractions
The stoichiometry N is the number of molecules, sites or subunits per partner or assembly. As for B1, the “stoichiometry N” value in data set [1] was determined as 2.

B2: MORC family CW-type zinc finger 2 (MORC2) (natural protein, human (endogenous in MCF-7 and T47D), UniProt Q9Y6X9 1-1032, looked up)
chain: MAFTNYSSLNRAQLTFEYLHTNSTTHEFLFGALAELVDNARDADATRIDIYAERREDLRGGFMLCFLDDGAGMDPSDAASVIQFGKSAKRTPESTQIGQYGNGLKSGSMRIGKDFILFTKKEDTMTCLFLSRTFHEEEGIDEVIVPLPTWNARTREPVTDNVEKFAIETELIYKYSPFRTEEEVMTQFMKIPGDSGTLVIIFNLKLMDNGEPELDIISNPRDIQMAETSPEGTKPERRSFRAYAAVLYIDPRMRIFIHGHKVQTKRLSCCLYKPRMYKYTSSRFKTRAEQEVKKAEHVARIAEEKAREAESKARTLEVRLGGDLTRDSRVMLRQVQNRAITLRREADVKKRIKEAKQRALKEPKELNFVFGVNIEHRDLDGMFIYNCSRLIKMYEKVGPQLEGGMACGGVVGVVDVPYLVLEPTHNKQDFADAKEYRHLLRAMGEHLAQYWKDIAIAQRGIIKFWDEFGYLSANWNQPPSSELRYKRRRAMEIPTTIQCDLCLKWRTLPFQLSSVEKDYPDTWVCSMNPDPEQDRCEASEQKQKVPLGTFRKDMKTQEEKQKQLTEKIRQQQEKLEALQKTTPIRSQADLKKLPLEVTTRPSTEEPVRRPQRPRSPPLPAVIRNAPSRPPSLPTPRPASQPRKAPVISSTPKLPALAAREEASTSRLLQPPEAPRKPANTLVKTASRPAPLVQQLSPSLLPNSKSPREVPSPKVIKTPVVKKTESPIKLSPATPSRKRSVAVSDEEEVEEEAERRKERCKRGRFVVKEEKKDSNELSDSAGEEDSADLKRAQKDKGLHVEVRVNREWYTGRVTAVEVGKHVVRWKVKFDYVPTDTTPRDRWVEKGSEDVRLMKPPSPEHQSLDTQQEGGEEEVGPVAQQAIAVAEPSTSECLRIEPDTTALSTNHETIDLLVQILRNCLRYFLPPSFPISKKQLSAMNSDELISFPLKEYFKQYEVGLQNLCNSYQSRADSRAKASEESLRTSERKLRETEEKLQKLRTNIVALLQKVQEDIDINTDDELDAYIEDLITKGD
notes: MORC2, human, endogenous in breast cancer cells; source: endogenous, MCF-7 and T47D lysates
For the protein B2, the “stoichiometry N” value in data set [2] stood at 2.
